Our source for the Kd, koff and kon values is US20250269047A1 (MABWELL SHANGHAI BIOSCIENCE, published 2025).

The labels stand for the following.
T1: recombinant human B7-H3-his extracellular domain protein (UniProtKB-Q5ZPR3, 1 aa-461 aa) (human, UniProt Q5ZPR3 29-461)
T1 construct: range 1-461; The printed range 1-461 starts at residue 1 and so includes the signal peptide; also called Human B7-H3 ECD; recombinant human B7-H3-his protein; not shown: C-terminal his tag
T1 sequence (looked up): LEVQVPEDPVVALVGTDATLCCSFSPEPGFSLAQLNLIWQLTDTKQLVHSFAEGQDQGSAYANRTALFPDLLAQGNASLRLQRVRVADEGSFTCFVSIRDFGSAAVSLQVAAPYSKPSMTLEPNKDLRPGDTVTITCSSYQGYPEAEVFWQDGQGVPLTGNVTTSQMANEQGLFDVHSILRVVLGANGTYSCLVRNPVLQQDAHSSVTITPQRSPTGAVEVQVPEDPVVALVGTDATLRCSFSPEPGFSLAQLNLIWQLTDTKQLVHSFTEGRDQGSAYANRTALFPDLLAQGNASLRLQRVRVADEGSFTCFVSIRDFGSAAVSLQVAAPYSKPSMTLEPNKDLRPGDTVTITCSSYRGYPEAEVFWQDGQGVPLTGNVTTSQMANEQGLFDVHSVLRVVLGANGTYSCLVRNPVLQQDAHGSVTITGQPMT

B1: ch9B11 (antibody, human IgG1, V domains shown)
VH: EVQLQQSGPELVRPGVSVKISCKGSGYSFTDYAIHWVKQSHAMSLEWIGIINTYYGNTNYNQKFKGKATMTVDKSSSTAYMELARLTSADSAIYYCARSTTTATFYWYFDVWGAGTTVSVSS
VL: DIVLTQSPVTLSVTPGDSVSLSCRASQSINNNLHWYQQKPHESPRLLIKYASQSISGIPSRFSGSGSGTDFTLSFNSVETEDFGMYFCQQSHSWPYTFGGGTKLEIK
notes: also called chimeric antibody 9B11
B2: ch10B4 (antibody, human IgG1, V domains shown)
VH: EVQLQQSGPELVKPGASVKISCKTSGYTFTEYIMHWVKQSHGKSLEWIGGINPNNGGTTYNQKFKGKATLTVDKSSSTAYMELRSLTSEDSAVYYCARKGKDYFDWYFDVWGAGTTVTVSS
VL: QIVLTQSPTIMSASPGEKVTMTCSASSSVSYMHWYQQKSGTSPKRWIYDTSKLASGVPARFSGSGSGTSYSLTISSMEAEDAATYYCQQWSSNPLTFGAGTKLELK
notes: also called chimeric antibody 10B4
B3: hz17A3-20 (antibody, human IgG1, kappa, V domains shown)
VH: EVQLVQSGAEVKKPGASVKVSCKASGYTFTDYALHWVRQAPGQGLEWMGLINTYSSNTNYNQKFKDRVTMTRDTSISTAYMELSRLRSEDTAVYYCARGITAVVGTRYYAMDYWGQGTLVTVSS
VL: EIVLTQSPDFQSVTPKEKVTITCRASQSISNNLHWYQQKPDQSPKLLIKYTSQNISGVPSRFSGSGSGTDFTLTINSLEAEDAATYYCQQSYSWPLTFGGGTKVEIKR
notes: hz17A3_VH3 + hz17A3_VL8; human IgG1, kappa
B4: hz17A3-25 (antibody, human IgG1, kappa, V domains shown)
VH: B3 VH with N57S
VL: B3 VL with K49Y, Y87F
notes: hz17A3_VH5 + hz17A3_VL9; human IgG1, kappa
B5: hz17A3-22 (antibody, human IgG1, kappa, V domains shown)
VH: B3 VH with N57S
VL: B3 VL
notes: hz17A3_VH5 + hz17A3_VL8; human IgG1, kappa
B6: hz17A3-21 (antibody, human IgG1, kappa, V domains shown)
VH: B3 VH with N52S
VL: B3 VL
notes: hz17A3_VH4 + hz17A3_VL8; human IgG1, kappa
B7: hz17A3-3 (antibody, human IgG1, kappa, V domains shown)
VH: B3 VH with E1Q, E89D
VL: B3 VL with K49Y
notes: hz17A3_VH1 + hz17A3_VL2; human IgG1, kappa
B8: hz17A3-24 (antibody, human IgG1, kappa, V domains shown)
VH: B3 VH with N52S
VL: B3 VL with K49Y, Y87F
notes: hz17A3_VH4 + hz17A3_VL9; human IgG1, kappa
B9: hz17A3-23 (antibody, human IgG1, kappa, V domains shown)
VH: B3 VH
VL: B3 VL with K49Y, Y87F
notes: hz17A3_VH3 + hz17A3_VL9; human IgG1, kappa
B10: hz17A3-4 (antibody, human IgG1, kappa, V domains shown)
VH: B3 VH with E1Q, M48I, E89D
VL: B3 VL with K49Y
notes: hz17A3_VH2 + hz17A3_VL2; human IgG1, kappa
B11: hz9B11-3 (antibody, human IgG1, kappa)
heavy: not shown
light: EIVLTQSPDFQSVTPKEKVTITCRASQSINNNLHWYQQKPDQSPKLLIKYASQSISGVPSRFSGSGSGTDFTLTINSLEAEDAATYYCQQSHSWPYTFGQGTKLEIKRTVAAPSVFIFPPSDEQLKSGTASVVCLLNNFYPREAKVQWKVDNALQSGNSQESVTEQDSKDSTYSLSSTLTLSKADYEKHKVYACEVTHQGLSSPVTKSFNRGEC
notes: hz9B11_VH1 + hz9B11_VL2; human IgG1, kappa
B12: hz9B11-4 (antibody, human IgG1, kappa)
heavy: not shown
light: B11 light
notes: hz9B11_VH2 + hz9B11_VL2; human IgG1, kappa

Substitutions are numbered along the chain they refer to.

For one assay, the target named is T1, recombinant human B7-H3-his …. Put plainly: BLI (Octet QKe), antibody on AHC biosensor, B7-H3-his 60 nM in solution. The procedure:
Affinities of the antibodies were determined by an assay including capturing Fc fragments of the antibodies with anti-human IgG Fc capture (AHC) biosensors using Octet QKe system instrument from Fortebio. For the assay, each of the chimeric antibodies ch9B11, ch10B4, ch17A3 and the control antibody Enoblituzumab was diluted to 4 μg/ml in PBS, and was allowed to flow through the surface of an AHC biosensor (Cat.: 18-0015, PALL) for 120 s. Recombinant human B7-H3 extracellular domain protein (Accession No.: UniProtKB-Q5ZPR3, 1 aa-461 aa, C-his tag) (60 nM) was used as a mobile phase. The association time was 300 s and the dissociation time was 300 s. When the assay was finished, data from which the response values of blank control had been deducted were fitted to a 1:1 Langmuir binding model using software, and then kinetic constants for antigen-antibody binding were calculated.
Consider B1, for which the Kd came out at 120 pM, the koff turned out to be 0.000141 s⁻¹ and the kon worked out at 1.17e+06 M⁻¹ s⁻¹.
On the same counts, the results for B2 are 435 pM, 0.000262 s⁻¹ and 602000 M⁻¹ s⁻¹.

The target is the same in a further assay. Described as above. The source holds these as a separate data set. The procedure:
According to the mutation designs, site-directed mutagenesis was performed in the plasmids expressing the humanized light chains and heavy chains respectively using StarMut gene Site-directed Mutagenesis Kit (Cat.: T111-01, GenStar). The mutated plasmids were transformed into E. coli cells for expansion, and plasmids expressing the humanized and mutated light and heavy chains based on the antibodies 9B11, 10B4, and 17A3 were obtained. […] 5-6 days after cell transfection, culture supernatants were purified through ProA affinity chromatography column to obtain different humanized antibodies. Affinities of the antibodies were determined by an assay including capturing Fc fragments of the antibodies with anti-human IgG Fc capture (AHC) biosensors using Octet QKe system instrument from Fortebio. For the assay, each of the humanized antibodies and the chimeric antibodies based on the antibodies 9B11, 10B4, and 17A3 was diluted to 4 μg/ml in PBS, and was allowed to flow through the surface of an AHC biosensor (Cat.: 18-0015, PALL) for 300 s. Recombinant human B7-H3-his protein (Accession No.: UniProtKB-Q5ZPR3, 1 aa-461 aa) was used as a mobile phase, and its concentration was 60 nM. The association time was 100 s and the dissociation time was 300 s. When the assay was finished, data from which the response values of blank control had been deducted were fitted to a 1:1 Langmuir binding model using software, and then kinetic constants for antigen-antibody binding were calculated. The light and heavy chain combinations and the affinity constant KD values of the humanized and the mutant antibodies based on the antibodies 9B11, 10B4, and 17A3 are shown in Tables 6-8 respectively.
Regarding B1, the Kd worked out at 99.8 pM.
On the same count and under the same terms, the value for B2 was 355 pM; that for B3 was 289 pM.
In the case of B4, the Kd stood at 4880 pM.
Consider B5, for which the equilibrium dissociation constant (Kd) is 479 pM.
Consider B6, for which the dissociation constant Kd worked out at 433 pM.
The same measure, in the same setting: the value for B7 was 598 pM; that for B8 was 1910 pM; that for B9 was 2580 pM.
Take B10: the Kd stood at 899 pM.
Take B11: the Kd was 118 pM.
Regarding B12, the Kd is 141 pM.
